Laboratory results reported in patent US20160264649A1.

Key:
Assay in all cases: cell-based or functional assay
[1] = target: HIV-1 Env of isolate TRJ04551.58 (subtype B) (HIV-1)
[2] = target: HIV-1 Env of isolate MGRM-Chronic-B-004 (subtype B) (HIV-1)
[3] = target: HIV-1 Env of isolate PVO.4 (subtype B) (HIV-1)
[4] = target: HIV-1 Env of isolate 6535.3 (subtype B) (HIV-1)
[5] = target: HIV-1 Env of isolate MGRM-Chronic-B-002 (subtype B) (HIV-1)
[6] = target: HIV-1 Env of isolate MGRM-Chronic-B-024 (subtype B) (HIV-1)
[7] = target: HIV-1 Env of isolate 98IN022 (subtype C) (HIV-1)
[8] = target: HIV-1 Env of isolate 93MW959 (subtype C) (HIV-1)
[9] = target: HIV-1 Env of isolate MGRM-Chronic-B-010 (subtype B) (HIV-1)
[10] = target: HIV-1 Env of isolate MG RM-C-022 (subtype C) (HIV-1)
[11] = target: HIV-1 Env of isolate MGRM-Chronic-B-003 (subtype B) (HIV-1)
[12] = target: HIV-1 Env of isolate NL43 (subtype B) (HIV-1)
[13] = target: HIV-1 Env of isolate SF162 (subtype B) (HIV-1) (UniProt P19550)
[14] = target: HIV-1 Env of isolate JRFL (subtype B) (HIV-1)
[15] = target: HIV-1 Env of isolate 93IN905 (subtype C) (HIV-1)
[16] = target: HIV-1 Env of isolate 93TH305 (subtype B) (HIV-1)
[17] = target: HIV-1 Env of isolate APV_6 (subtype B) (HIV-1)
[18] = target: HIV-1 Env of isolate MGRM-Chronic-B-023 (subtype B) (HIV-1)
[19] = target: HIV-1 Env of isolate THR0.18 (subtype B) (HIV-1)
[20] = target: HIV-1 Env of isolate MGRM-Chronic-B-020 (subtype B) (HIV-1)
[21] = target: HIV-1 Env of isolate MGRM-Chronic-B-017 (subtype B) (HIV-1)
[22] = target: HIV-1 Env of isolate MG RM-C-028 (subtype C) (HIV-1)
[23] = target: HIV-1 Env of isolate APV_13 (subtype B) (HIV-1)
[24] = target: HIV-1 Env of isolate MG RM-C-026 (subtype C) (HIV-1)
[25] = target: HIV-1 Env of isolate MGRM-Chronic-B-018 (subtype B) (HIV-1)
[26] = target: HIV-1 92RW008 Env (HIV-1)
[27] = target: HIV-1 Env of isolate MG RM-C-019 (subtype C) (HIV-1)
[28] = target: HIV-1 Env of isolate MGRM-Chronic-B-008 (subtype B) (HIV-1)
[29] = target: HIV-1 Env of isolate MGRM-Chronic-B-001 (subtype B) (HIV-1)
[30] = target: HIV-1 Env of isolate MGRM-Chronic-B-012 (subtype B) (HIV-1)
[31] = target: HIV-1 Env of isolate MG RM-C-027 (subtype C) (HIV-1)
[32] = target: HIV-1 Env of isolate TRO.11 (subtype B) (HIV-1)
[33] = target: HIV-1 Env of isolate VLGCB3 (subtype B) (HIV-1)
[34] = target: HIV-1 Env of isolate APV_17 (subtype B) (HIV-1)
[35] = target: HIV-1 Env of isolate QH0692.42 (subtype B) (HIV-1)
[36] = target: HIV-1 Env of isolate 92 BR 020 (subtype B) (HIV-1)
[37] = target: HIV-1 Env of isolate MG RM-C-020 (subtype C) (HIV-1)
[38] = target: HIV-1 Env of isolate SC422661.8 (subtype B) (HIV-1)
[39] = target: HIV-1 Env of isolate MGRM-Chronic-B-011 (subtype B) (HIV-1)
[40] = target: HIV-1 Env of isolate 97ZA012 (subtype C) (HIV-1)
[41] = target: HIV-1 Env of isolate JRCSF (subtype B) (HIV-1) (UniProt P20871)
[42] = target: HIV-1 Env of isolate MG RM-C-023 (subtype C) (HIV-1)
[43] = target: HIV-1 Env of isolate CAAN.A2 (subtype B) (HIV-1)
[44] = target: HIV-1 Env of isolate MG RM-C-025 (subtype C) (HIV-1)
[45] = target: HIV-1 Env of isolate MG RM-C-024 (subtype C) (HIV-1)

Chain of 4980_N08 (PGT-143) (antibody) (VH): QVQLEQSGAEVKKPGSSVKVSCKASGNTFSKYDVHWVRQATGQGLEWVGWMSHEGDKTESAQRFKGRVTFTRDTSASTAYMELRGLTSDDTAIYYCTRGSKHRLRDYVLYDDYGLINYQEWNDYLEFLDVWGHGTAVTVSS
Chain of 4980_N08 (PGT-143) (antibody) (VL): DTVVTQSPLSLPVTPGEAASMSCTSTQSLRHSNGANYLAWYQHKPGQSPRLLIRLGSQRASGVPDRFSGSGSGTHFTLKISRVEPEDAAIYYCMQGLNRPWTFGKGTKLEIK
Chain of 4970_K22 (PGT-144) (antibody) (VH): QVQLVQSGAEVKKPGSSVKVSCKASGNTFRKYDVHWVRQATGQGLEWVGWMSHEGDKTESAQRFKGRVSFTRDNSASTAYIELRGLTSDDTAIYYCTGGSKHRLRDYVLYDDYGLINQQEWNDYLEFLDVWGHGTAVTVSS
Chain of 4970_K22 (PGT-144) (antibody) (VL): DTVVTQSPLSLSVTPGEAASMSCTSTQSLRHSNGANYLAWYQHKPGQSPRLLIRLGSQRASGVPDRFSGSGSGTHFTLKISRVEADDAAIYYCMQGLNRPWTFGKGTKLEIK

**Q.** For 4970_K22 (PGT-144) (antibody), which IC50 [1] is on record?
**A.** > 50 µg/mL

**Q.** What about the IC50 [2] of the same substance?
**A.** 9.41 µg/mL

**Q.** And the IC50 [3]?
**A.** 0.535 µg/mL

**Q.** And the IC50 [4]?
**A.** > 50 µg/mL

**Q.** What about the IC50 [5] of the same substance?
**A.** > 50 µg/mL

**Q.** And the IC50 [6]?
**A.** 0.04 µg/mL

**Q.** What about the IC50 [7] of the same substance?
**A.** 0.171 µg/mL

**Q.** And the IC50 [8]?
**A.** 0.332 µg/mL

**Q.** And the IC50 [9]?
**A.** > 50 µg/mL

**Q.** And the IC50 [10]?
**A.** 2.58 µg/mL

**Q.** What about the IC50 [11] of the same substance?
**A.** 7.41 µg/mL

**Q.** What about the IC50 [12] of the same substance?
**A.** > 50 µg/mL

**Q.** What about the IC50 [13] of the same substance?
**A.** > 50 µg/mL

**Q.** And the IC50 [14]?
**A.** > 50 µg/mL

**Q.** What about the IC50 [15] of the same substance?
**A.** 0.132 µg/mL

**Q.** What about the IC50 [16] of the same substance?
**A.** > 50 µg/mL

**Q.** What about the IC50 [17] of the same substance?
**A.** > 50 µg/mL

**Q.** And the IC50 [18]?
**A.** > 50 µg/mL

**Q.** And the IC50 [19]?
**A.** 0.029 µg/mL

**Q.** And the IC50 [20]?
**A.** > 50 µg/mL

**Q.** And the IC50 [21]?
**A.** 0.712 µg/mL

**Q.** And the IC50 [22]?
**A.** > 50 µg/mL

**Q.** And the IC50 [23]?
**A.** > 50 µg/mL

**Q.** What about the IC50 [24] of the same substance?
**A.** > 50 µg/mL

**Q.** What about the IC50 [25] of the same substance?
**A.** 2.4 µg/mL

**Q.** What about the IC50 [26] of the same substance?
**A.** > 50 µg/mL

**Q.** And the IC50 [27]?
**A.** 0.513 µg/mL

**Q.** What about the IC50 [28] of the same substance?
**A.** > 50 µg/mL

**Q.** And the IC50 [29]?
**A.** > 50 µg/mL

**Q.** What about the IC50 [30] of the same substance?
**A.** > 50 µg/mL

**Q.** And the IC50 [31]?
**A.** > 50 µg/mL

**Q.** What about the IC50 [32] of the same substance?
**A.** 4.73 µg/mL

**Q.** And the IC50 [33]?
**A.** > 50 µg/mL

**Q.** And the IC50 [34]?
**A.** 10.3 µg/mL

**Q.** And the IC50 [35]?
**A.** > 50 µg/mL

**Q.** And the IC50 [36]?
**A.** 44 µg/mL

**Q.** What about the IC50 [37] of the same substance?
**A.** 1.29 µg/mL

**Q.** What about the IC50 [38] of the same substance?
**A.** > 50 µg/mL

**Q.** And the IC50 [39]?
**A.** 5.64 µg/mL

**Q.** And the IC50 [40]?
**A.** > 50 µg/mL

**Q.** What about the IC50 [41] of the same substance?
**A.** 0.149 µg/mL

**Q.** And the IC50 [42]?
**A.** 0.38 µg/mL

**Q.** And the IC50 [43]?
**A.** > 50 µg/mL

**Q.** What about the IC50 [44] of the same substance?
**A.** 17.6 µg/mL

**Q.** And the IC50 [45]?
**A.** 2.06 µg/mL

**Q.** What does the source list for 4980_N08 (PGT-143) (antibody)?
**A.** IC50 [1]: > 50 µg/mL; IC50 [2]: 0.395 µg/mL; IC50 [3]: 0.162 µg/mL; IC50 [4]: > 50 µg/mL; IC50 [5]: > 50 µg/mL; IC50 [6]: 0.01 µg/mL; IC50 [7]: 0.001 µg/mL; IC50 [8]: 0.002 µg/mL; IC50 [9]: > 50 µg/mL; IC50 [10]: 0.103 µg/mL; IC50 [11]: 0.854 µg/mL; IC50 [12]: > 50 µg/mL; IC50 [13]: > 50 µg/mL; IC50 [14]: > 50 µg/mL; IC50 [15]: 0.002 µg/mL; IC50 [16]: 17.3 µg/mL; IC50 [17]: 14 µg/mL; IC50 [18]: 0.236 µg/mL; IC50 [19]: 0.016 µg/mL; IC50 [20]: > 50 µg/mL; IC50 [21]: 0.145 µg/mL; IC50 [22]: 12.4 µg/mL; IC50 [23]: > 50 µg/mL; IC50 [24]: > 50 µg/mL; IC50 [25]: 0.377 µg/mL; IC50 [26]: 0.385 µg/mL; IC50 [27]: 0.004 µg/mL; IC50 [28]: > 50 µg/mL; IC50 [29]: > 50 µg/mL; IC50 [30]: > 50 µg/mL; IC50 [31]: 0.598 µg/mL; IC50 [32]: 0.219 µg/mL; IC50 [33]: > 50 µg/mL; IC50 [34]: 1.11 µg/mL; IC50 [35]: > 50 µg/mL; IC50 [36]: 25.9 µg/mL; IC50 [37]: 0.797 µg/mL; IC50 [38]: 2.02 µg/mL; IC50 [39]: 1.56 µg/mL; IC50 [40]: > 50 µg/mL; IC50 [41]: 0.007 µg/mL; IC50 [42]: 0.148 µg/mL; IC50 [43]: > 50 µg/mL; IC50 [44]: 0.336 µg/mL; IC50 [45]: 0.05 µg/mL
